Assay results from the DeepSol protein solubility set.

test: soluble on expression in E. coli; label from the status in PepcDB or PDB records

Sequence	soluble on expression in E. coli
MRFSREALLELEASRLAPYAQKARDTRGRAHPEPESLYRTPYQKDRDRILHTTAFRRLEYKTQVLPGWAGDYYRTRLTHTLEVAQVSRSIARALGLNEDLTEAIALSHDLGHPPFGHTGEHVLNALMQDHGGFEHNAQALRILTHLEVRYPGFRGLNLTYEVLEGIATHEAAYSPGFKPLYEGQGTLEAQVVDLSDAIAYAAHDLDDGLRAGLLHPEELKEVELLQALALEEGLDLLRLPELDRRVLVRQLLGYFITAAIEATHRRVEEAGVQSAEAVRRHPSRLAALGEEAEKALKALKAFLMERFYRHPEVLRERRKAEAVLEGLFAAYTRYPELLPREVQAKIPEEGLERAVCDYIAGMTDRFALEAYRRLSP	soluble
VVPGPVHTSPREVAGPVDVLILAVKATQNDAARPWLTRLCDERTVVAVLQNGVEQVEQVQPHCPSSAVVPAIVWCSAETQPQGWVRLRGEAALVVPTGPAAEQFAGLLRGAGATVDCDPDFTTAAWRKLLVNALAGFMVLSGRRSAMFRRDDVAALSRRYVAECLAVARAEGARLDDDVVDEVVRLVRSAPQDMGTSMLADRAAHRPLEWDLRNGVIVRKARAHGLATPISDVLVPLLAAASDGPG	not soluble
MGSDKIHHHHHHVNYPKVYTSEQACPINLVGETGQAVQISIHAPSQYICANCERILPDWKRQSFLRVVIVLQQSRYQLVKKTTEVESEKERLREKFMRFGCDLAFNLRDRGYLTDLIDPRTGYPLLSHPGAIPHDDTAVVKALLNYPVIKNQCRVLVHPEWGAAVYPSILISEAPPILIEWVTKGIAAMHGWKEISH	not soluble
MDEKKLFENFQLTFGRMISPFEIEDIQKWIHEDNMPIEVVNLALREAVENNKISWKYINKILVDWYKSGDTTVEKVRDRLQRFDDSKKQRSVTTSNVPSWSNPDYKEPDLEEFALGSMDGIEDGSGDF	not soluble
MAAAGARPVELGFAESAPAWRLRSEQFPSKVGGRPAWLGAAGLPGPQALACELCGRPLSFLLQVYAPLPGRPDAFHRCIFLFCCREQPCCAGLRVFRNQLPRKNDFYSYEPPSENPPPETGESVCLQLKSGAHLCRVCGCLGPKTCSRCHKAYYCSKEHQTLDWRLGHKQACAQPDHLDHIIPDHNFLFPEFEIVIETEDEIMPEVVEKEDYSEIIGSMGEALEEELDSMAKHESREDKIFQKFKTQIALEPEQILRYGRGIAPIWISGENIPQEKDIPDCPCGAKRILEFQVMPQLLNYLKADRLGKSIDWGILAVFTCAESCSLGTGYTEEFVWKQDVTDTP	soluble
MNHTLQFPKAPEHLLQALNEVIPKCKLMAQQLPETAISLWLIPPVFPTERLDDDIIRRIWSDTPYWIFCWASGLAMAQWLLAEPHHVKDKVVLDFGAGSGVVAIAAKMAGAKRVICCDIDETSLNACRENALLNNVELEYLNDLYLSESVDILLAADVLYDQSNRFFLDEFLKFAPEVWVADSRVKNFSHPGYIKIDERSATTWPDLDEAKEFRNVSFYKTLEHHHHHH	not soluble
MKYPQVWDLDTFFKGGSQSSDFQHFVKETEELVDKLVASTSAKMTLAQLVNELVNVQKVMQRLRHGAAFVSCLKAQNVKDEHAFQWQGKLNELQAKLQNIWVELEATFGRMEDGEWQELLNHPQLSDITFSLNERRQAAAEKLAPEQEKLVAQLAVDGYHAWGEVYNQAVGRMEIPFEEDGETKRLSP	not soluble
MGSDKIHHHHHHMNKIGYNMFQVDKNYWLVIAPYVYCCIKGKKALLYNTKNWEYLEVENENVIGLLRQLHKRDNLGAVFCEGKMLTELCYSNFISDFVLKEMGGVIDVASFPDKPIQMMPILNLQCDVDKLQQIEDRGIGEDILFNLLEINVFLYNVCDHHCLYCSKYSQQNLCCRVAETETSQVLDISALKSIIAQIRYGVVGRLNLFGGNIWKYPNYNDIPFLLSGFKGQIHIWSHYADFVGNKILDSDFFYDVIVPFPMEEELLRNCIFLLGDLQIKIHFYVTQIDEYAKAEEIVHKYAINDYSIHSTYVGCNLDYFEKYVYMDKGDILQSQYSMSQIFAHQKMNSHFFGSLSISVNGDVYANLNSLVLGNIYKDSLIDIVNKEMLDNTAWRKIRNDYPCCDCIYQWLCPSPSNYELAIGKPNLCHVKP	not soluble
MSLDIFIMDPNEKLTSERLKDFLDRHAARLSRYERLMNMYMGKHPILYEKEKELGKPNNRLVVNFAKYIVDMLNGYFIGIPVKTIHENKEVAAKMKEIAKRNSQNDNNAELSKMCSIYGHAYEFLYQDENAHTRVTYVDPREAFVIYDNTVAQEPLYGVRVLKDDKERPYGTIYSRYDERDFFTSDDGELVIEEKGQEHFFGDVPLIEYVENNERQSAFESVETLINAYNKAISEKANDVDYFADAYLVILGAELDEETIKQIRDNRVINLKSGDGQKIVLEFLDKPNADTTQENLIERLERLIFQISMVANISDEKFGTSSGIALKYKLQPMENIALMKERKFNNGMIRRFKMMFNIPTNFGVDPDEYLNIEYVFTRNIPNNILEEAETAEKLAGITSRQTQLSVLSVVDNVQNELDRIQKEKEGEEINSFNRDMNSPFFGSGELDDGQEEEGHHHHHH	not soluble
GMQGIAFQDAYPDDLSHCYGCGRNNEQGHQLKSYWRGEQTIAHFMPKPFHTAIPGFVYGGLIASLIDCHGTGSASAAAQRALEQAGEQLDEPPRFVTAALNIDYLAPTPMGVELELVGEIKEVKPRKVVVEIALSADGKLCARGHMVAVKMPETMAATSA	soluble
MRILFSLFFFISLSLLAQPLSLSLKNAPTAEILSYLAEENMKNIVLSDQIDKNTTLRIENSHFDEIVESIVRANQLSKRKEKQIYFIGHLKEDKAIEKIDNGDKPKLITQTIKLDYAKASEVIESLTKGKGNGNVLSEQGYLYFDERSNSLIIKDSPDSMKHILALIKNLDKPTEQIAIEARIVTISSQDLQELGVRWGMFSPSDDYHKVASSLETKGLTTANHLNVNFPVNNATSLALQVARINSRVLDLELTALEQENNVEIIASPRLLTTNKKPASIKQGAEIPYVLYNRKDEVKNIEFKEAVLGLQVTPHISADNQILLDLVVTQNSPNLNNTAVNGLITIDKQELNTQVFAKHGETIVLGGIFQHLTAKGEDRVPLLGSIPVLKKLFSHSTDKITKRELVIFVTPYLVQDKYKKLEHHHHHH	not soluble
MRVAYVLSSPRAASHKLGQMILPQLEAGTHGVEVVGIFFFDDNTLVLQKGNPIGERLAKVAKEKGILLMMCDLCALERGLAEGEPRWCTPEGEGRKTPGTCRVSPHVVEGVEVGCFPDLYRALAGRVDQVITL	soluble
AAEKTGKCRVVTTTGTADWSVRESFNNYLEGPIANGAAYKYHGGIEVRDGVETTGTKSAREFTWPVLGSEEGAVKLGGGVHWTGHNHYSGDDESQAPDNFILDLDFSNPTVKFDGNEGTLLVDFKSREFVDTKTVADFLTGTQAELATITFDEPIDLTQENVTVTGQTKLTATGVDVMGTFYPEGEALAPITLNLTN	not soluble
MGSDKIHHHHHHMNYRDELILQWVNQQGKASVIELAQHCDISVETIRRDLNKLANKGLLHRTHGGAVSNKTKDLGSFFQTRKHINATAKRHIAQKALDLLYENAVIGLDASSTSWYFAYLMPDIPCTVVTNSMFNINALVNKSNVKTIVTGGVYSAKYEAFYGPLSEYLLQRLHINFSVFSCSGIDKNGNIWESNELNASLKRKMMEASERAYLLIDSSKFEKTSLIQLADLSKINTIFSDRSLPDNLQKYCEQHDIMTVL	not soluble
MGSDKIHHHHHHMRIAIDPFMHRHLSLEELPRKVRELGYDWIEMSPRADFLEWFKAPRVFPQRMKEFKKALAAENVKIASLLPMYRWASNDETERKAAVKHWKRAIEIAVEMEIDTMNSEFGRGPHPDKGSCYCCHTGSMIEACEDAWWRSMEELVPVFERENIQLNIEPHPEDWCETLQPALDIIRTVNSKNVKFLYCAPHTFYFGDDTKAMLREAKDVLAHVHVGDTFNHKASSGLRYILNPPGTQARVHQHLNIGQGEVPWDDFFGTLAEIGFDGTMTACVFAWEDRADHSGKFMLSEMNRYIEKYWPK	not soluble
MCSSDSLQLHNVFVYGSFQDPDVINVMLDRTPEIVSATLPGFQRFRLKGRLYPCIVPSEKGEVHGKVLMGVTSDELENLDAVEGNEYERVTVGIVREDNSEKMAVKTYMWINKADPDMFGEWNFEEWKRLHKKKFIETFKKIMECKKKPQGQGNDDISHVLREDQ	soluble
MPLADIADVDIDPKGVFKYILIQVTDNSTKQQKFVVRGYYRCSFHDDILQETKSSAPSDLKLKCVGGGRIKHDEIGKDILVYGYSYGYGRADHQIAVDILKQKYPDYNIHFSNDGY	not soluble
MAITRESKNGEEFVGEVTFYEGVNMNVVVNFFTGLDHYEYAKLRFAHTAHTPPLIRASSTSASASASTSTSSSRPKKHYLEKNMEHLLKKLDILAFKQTIIESRSPTSDSIHHQDFVSNTDTAEYDDDDTKFF	not soluble
MNIGKPRKLGKTIEDIEEGDSLSLTESIEDKDLLLYLGLTNDANPLYIQHDYAQKTEYEKPIVPSIMLMGIITSAISKHLPGPGSHVVNFSVNFVEPVFHYETLTFQLEVIKVDKMKDVITISVEAVNEQENRVLDAVVMVQPPQVTIDELTEKEGTLTYE	soluble
SLVDLAADILVADAHMHTNPTRGLGAREVARRFRREGGWFAALLTLTTWSYGLAPTGVEAYRRMYEIHLRECRAAREEGLRVACFAGIHPAEVDRMIDKHRQPPEKALETALEAVEVLRRLCREGAIDGVGEVGRQHYRTSPLRVAIAEVVLEEAAAAALEEGCLLQLHLENEGPATVETVDRILRRAGATGARRGMVIFHHATLRVAKEAVARGYNATIPGVPKLLEHAAANEPPDYMVESDYLDDPARPGAVVEPWKMAQKLREIASRTPETREWVRRTNIDLVERVFQASPP	not soluble
LKRYIAGLACAATAVLSAPALASTAHAQAADPISALKSQFSSGRGVNFVDTTKTQGPQGNMVLAKRTGALQFGPSGISASDQTAQLRFKASDFEDLTEGEEDEDFSKFFRGLAKPERVVRIKNTTYVSGGVMGEFMPADKTWVRFPDGLLGFTGAMSQFVNVAEPATLKALLAHATKHGGTYSGKITFGELNKVSPWFRASLGAPTAKTAKIVVSWKLFLGSDRLAKRLVTTYSTAGSAESTVTVDTRYTGWGSKVTVKAPPADQVADLKDLEEGAETATSIPLLGN	soluble
MGSDKIHHHHHHMLYDVAIIGGGPSGAAAAEILARAGHSTILIERNLANVKPCGGAIPLGLIEEFDIPDELVEKKLTRMSVRSPKGETIFMHMPNGYVGMVRRERFDRYLREKAQKAGAEVVEALVKKIERSVDRFTLQLFNKEGEALPPVEASYVIGADGANSKTADELGFPPNDLKVIAMQQRFHYCDELKPYEELVEIWFDGEVSPDFYGWIFPKTDHIAIGTGTEEHRNDIKQLQHRFVEKIGIAEKPYLNEAAKIPMKPRRSFTQERAILVGDAAGLVTPANGEGIFFAMRSGKLGAEAMIERIRNNTPLSSYEKKFRKLYSPIFFGLQVLQSVYYKSDRLRESFVAICRDKDVQGITFDSYLYKKMVPAPWSVQMKIMAKNIYHLAKGS	not soluble
MEPVTSSEREAELERELDLLRKELNIEQKMNSELKRLMIATLSDELQGQVEALTEDKVRLAHRVDEYMGKLMVEDEESDRLRIDRDVWKCKFLAQSIRCDELTSKNEYLLKTLVGIQQAVKTKNVTSDEISDFTQLDLQPLFHRSPCEERVRPITAKYTNLTIACCKNCMGRDIQLL	not soluble
SANEAYPCPCDIGHRLEYGGLGREVQVEHIKAYVTKSPVDAGKAVIVIQDIFGWQLPNTRYIADMISGNGYTTIVPDFFVGQEPWDPSGDWSIFPEWLKTRNAQKIDREISAILKYLKQQCHAQKIGIVGFCWGGTAVHHLMMKYSEFRAGVSVYGIVKDSEDIYNLKNPTLFIFAENDVVIPLKDVSLLTQKLKEHCKVEYQIKTFSGQTHGFVHRKREDCSPADKPYIDEARRNLIEWLNKYM	soluble
